Measurements as given in US20160264649A1.

Legend:
Experiment in all cases: cell-based or functional assay
[1] = target: HIV-1 92RW008 Env (HIV-1)
[2] = target: HIV-1 Env of isolate MG RM-C-022 (subtype C) (HIV-1)
[3] = target: HIV-1 Env of isolate MGRM-Chronic-B-024 (subtype B) (HIV-1)
[4] = target: HIV-1 Env of isolate QH0692.42 (subtype B) (HIV-1)
[5] = target: HIV-1 Env of isolate MGRM-Chronic-B-012 (subtype B) (HIV-1)
[6] = target: HIV-1 Env of isolate 93IN905 (subtype C) (HIV-1)
[7] = target: HIV-1 Env of isolate MG RM-C-019 (subtype C) (HIV-1)
[8] = target: HIV-1 Env of isolate MG RM-C-026 (subtype C) (HIV-1)
[9] = target: HIV-1 Env of isolate MG RM-C-028 (subtype C) (HIV-1)
[10] = target: HIV-1 Env of isolate MGRM-Chronic-B-018 (subtype B) (HIV-1)
[11] = target: HIV-1 Env of isolate MG RM-C-024 (subtype C) (HIV-1)
[12] = target: HIV-1 Env of isolate NL43 (subtype B) (HIV-1)
[13] = target: HIV-1 Env of isolate SC422661.8 (subtype B) (HIV-1)
[14] = target: HIV-1 Env of isolate MG RM-C-025 (subtype C) (HIV-1)
[15] = target: HIV-1 Env of isolate VLGCB3 (subtype B) (HIV-1)
[16] = target: HIV-1 Env of isolate MGRM-Chronic-B-020 (subtype B) (HIV-1)
[17] = target: HIV-1 Env of isolate MGRM-Chronic-B-001 (subtype B) (HIV-1)
[18] = target: HIV-1 Env of isolate MG RM-C-023 (subtype C) (HIV-1)
[19] = target: HIV-1 Env of isolate 6535.3 (subtype B) (HIV-1)
[20] = target: HIV-1 Env of isolate JRCSF (subtype B) (HIV-1) (UniProt P20871)
[21] = target: HIV-1 Env of isolate MGRM-Chronic-B-004 (subtype B) (HIV-1)
[22] = target: HIV-1 Env of isolate TRO.11 (subtype B) (HIV-1)
[23] = target: HIV-1 Env of isolate TRJ04551.58 (subtype B) (HIV-1)
[24] = target: HIV-1 Env of isolate APV_13 (subtype B) (HIV-1)
[25] = target: HIV-1 Env of isolate THR0.18 (subtype B) (HIV-1)
[26] = target: HIV-1 Env of isolate 93TH305 (subtype B) (HIV-1)
[27] = target: HIV-1 Env of isolate APV_6 (subtype B) (HIV-1)
[28] = target: HIV-1 Env of isolate 98IN022 (subtype C) (HIV-1)
[29] = target: HIV-1 Env of isolate 93MW959 (subtype C) (HIV-1)
[30] = target: HIV-1 Env of isolate MGRM-Chronic-B-011 (subtype B) (HIV-1)
[31] = target: HIV-1 Env of isolate 92 BR 020 (subtype B) (HIV-1)
[32] = target: HIV-1 Env of isolate SF162 (subtype B) (HIV-1) (UniProt P19550)
[33] = target: HIV-1 Env of isolate MGRM-Chronic-B-003 (subtype B) (HIV-1)
[34] = target: HIV-1 Env of isolate JRFL (subtype B) (HIV-1)
[35] = target: HIV-1 Env of isolate MGRM-Chronic-B-023 (subtype B) (HIV-1)
[36] = target: HIV-1 Env of isolate CAAN.A2 (subtype B) (HIV-1)
[37] = target: HIV-1 Env of isolate MG RM-C-020 (subtype C) (HIV-1)
[38] = target: HIV-1 Env of isolate MG RM-C-027 (subtype C) (HIV-1)
[39] = target: HIV-1 Env of isolate 97ZA012 (subtype C) (HIV-1)
[40] = target: HIV-1 Env of isolate MGRM-Chronic-B-017 (subtype B) (HIV-1)
[41] = target: HIV-1 Env of isolate MGRM-Chronic-B-008 (subtype B) (HIV-1)
[42] = target: HIV-1 Env of isolate MGRM-Chronic-B-002 (subtype B) (HIV-1)
[43] = target: HIV-1 Env of isolate APV_17 (subtype B) (HIV-1)
[44] = target: HIV-1 Env of isolate PVO.4 (subtype B) (HIV-1)
[45] = target: HIV-1 Env of isolate MGRM-Chronic-B-010 (subtype B) (HIV-1)

Chain of 4970_K22 (PGT-144) (antibody) (VH): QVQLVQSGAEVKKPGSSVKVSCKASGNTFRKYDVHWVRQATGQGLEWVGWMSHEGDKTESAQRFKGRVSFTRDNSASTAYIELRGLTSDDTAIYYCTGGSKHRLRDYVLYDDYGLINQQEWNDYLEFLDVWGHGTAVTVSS
Chain of 4970_K22 (PGT-144) (antibody) (VL): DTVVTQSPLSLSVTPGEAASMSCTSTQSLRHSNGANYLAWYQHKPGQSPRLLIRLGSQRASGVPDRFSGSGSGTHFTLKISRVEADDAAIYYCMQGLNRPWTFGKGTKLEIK
Chain of 4980_N08 (PGT-143) (antibody) (VH): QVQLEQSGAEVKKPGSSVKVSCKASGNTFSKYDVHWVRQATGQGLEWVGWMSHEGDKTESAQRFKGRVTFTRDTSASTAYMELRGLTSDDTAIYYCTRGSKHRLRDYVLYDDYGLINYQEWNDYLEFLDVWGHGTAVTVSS
Chain of 4980_N08 (PGT-143) (antibody) (VL): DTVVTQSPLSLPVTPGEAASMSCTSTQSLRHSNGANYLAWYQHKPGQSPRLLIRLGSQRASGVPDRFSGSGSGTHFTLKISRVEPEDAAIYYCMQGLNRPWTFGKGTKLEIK
Chain of 4995_P16 (PGT-145) (antibody) (VH): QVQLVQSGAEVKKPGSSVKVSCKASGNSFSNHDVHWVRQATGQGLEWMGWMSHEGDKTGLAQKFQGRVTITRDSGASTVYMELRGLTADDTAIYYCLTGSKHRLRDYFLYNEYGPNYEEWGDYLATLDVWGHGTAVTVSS
Chain of 4995_P16 (PGT-145) (antibody) (VL): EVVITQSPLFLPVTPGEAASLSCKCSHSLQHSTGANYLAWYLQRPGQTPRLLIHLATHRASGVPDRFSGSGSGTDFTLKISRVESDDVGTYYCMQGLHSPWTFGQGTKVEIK

4970_K22 (PGT-144) (antibody) was tested, and the IC50 [1] was > 50 µg/mL, the IC50 [2] was 2.58 µg/mL and the IC50 [3] was 0.04 µg/mL. For the same substance, the IC50 [4] was > 50 µg/mL, the IC50 [5] was > 50 µg/mL and the IC50 [6] was 0.132 µg/mL. For the same substance, the IC50 [7] was 0.513 µg/mL, the IC50 [8] was > 50 µg/mL and the IC50 [9] was > 50 µg/mL. The IC50 [10] was 2.4 µg/mL, the IC50 [11] was 2.06 µg/mL and the IC50 [12] was > 50 µg/mL. For the same substance, the IC50 [13] was > 50 µg/mL, the IC50 [14] was 17.6 µg/mL and the IC50 [15] was > 50 µg/mL. For the same substance, the IC50 [16] was > 50 µg/mL, the IC50 [17] was > 50 µg/mL and the IC50 [18] was 0.38 µg/mL. For the same substance, the IC50 [19] was > 50 µg/mL, the IC50 [20] was 0.149 µg/mL and the IC50 [21] was 9.41 µg/mL. For the same substance, the IC50 [22] was 4.73 µg/mL, the IC50 [23] was > 50 µg/mL and the IC50 [24] was > 50 µg/mL. The IC50 [25] was 0.029 µg/mL, the IC50 [26] was > 50 µg/mL and the IC50 [27] was > 50 µg/mL. The IC50 [28] was 0.171 µg/mL, the IC50 [29] was 0.332 µg/mL and the IC50 [30] was 5.64 µg/mL. For the same substance, the IC50 [31] was 44 µg/mL, the IC50 [32] was > 50 µg/mL and the IC50 [33] was 7.41 µg/mL. The IC50 [34] was > 50 µg/mL, the IC50 [35] was > 50 µg/mL and the IC50 [36] was > 50 µg/mL. The IC50 [37] was 1.29 µg/mL, the IC50 [38] was > 50 µg/mL and the IC50 [39] was > 50 µg/mL. For the same substance, the IC50 [40] was 0.712 µg/mL, the IC50 [41] was > 50 µg/mL and the IC50 [42] was > 50 µg/mL. The IC50 [43] was 10.3 µg/mL, the IC50 [44] was 0.535 µg/mL and the IC50 [45] was > 50 µg/mL.
4995_P16 (PGT-145) (antibody) gave an IC50 [1] of 0.4 µg/mL, an IC50 [2] of 0.492 µg/mL and an IC50 [3] of 0.018 µg/mL. The IC50 [4] was > 50 µg/mL, the IC50 [5] was 9.06 µg/mL and the IC50 [6] was 0.002 µg/mL. The IC50 [7] was 0.005 µg/mL, the IC50 [8] was > 50 µg/mL and the IC50 [9] was 0.099 µg/mL. For the same substance, the IC50 [10] was 0.013 µg/mL, the IC50 [11] was 0.174 µg/mL and the IC50 [12] was 0.006 µg/mL. The IC50 [13] was 0.079 µg/mL, the IC50 [14] was 0.044 µg/mL and the IC50 [15] was > 50 µg/mL. The IC50 [16] was > 50 µg/mL, the IC50 [17] was 3.22 µg/mL and the IC50 [18] was 0.201 µg/mL. For the same substance, the IC50 [19] was > 50 µg/mL, the IC50 [20] was 0.002 µg/mL and the IC50 [21] was 0.023 µg/mL. For the same substance, the IC50 [22] was 0.044 µg/mL, the IC50 [23] was > 50 µg/mL and the IC50 [24] was 0.337 µg/mL. The IC50 [25] was 0.013 µg/mL, the IC50 [26] was 0.032 µg/mL and the IC50 [27] was 0.104 µg/mL. The IC50 [28] was 0.005 µg/mL, the IC50 [29] was 1.2 µg/mL and the IC50 [30] was 0.206 µg/mL. The IC50 [31] was 1.05 µg/mL, the IC50 [32] was > 50 µg/mL and the IC50 [33] was 0.045 µg/mL. It also gave an IC50 [34] of 30.4 µg/mL, an IC50 [35] of 0.009 µg/mL and an IC50 [36] of 7.08 µg/mL. The IC50 [37] was 0.712 µg/mL, the IC50 [38] was 0.095 µg/mL and the IC50 [39] was 0.915 µg/mL. It also gave an IC50 [40] of 0.054 µg/mL, an IC50 [41] of 1.9 µg/mL and an IC50 [42] of 3.67 µg/mL. The IC50 [43] was 0.488 µg/mL, the IC50 [44] was 0.299 µg/mL and the IC50 [45] was > 50 µg/mL.
Substance 4980_N08 (PGT-143) (antibody) has an IC50 [1] of 0.385 µg/mL, an IC50 [2] of 0.103 µg/mL and an IC50 [3] of 0.01 µg/mL. The IC50 [4] was > 50 µg/mL, the IC50 [5] was > 50 µg/mL and the IC50 [6] was 0.002 µg/mL. For the same substance, the IC50 [7] was 0.004 µg/mL, the IC50 [8] was > 50 µg/mL and the IC50 [9] was 12.4 µg/mL. The IC50 [10] was 0.377 µg/mL, the IC50 [11] was 0.05 µg/mL and the IC50 [12] was > 50 µg/mL. For the same substance, the IC50 [13] was 2.02 µg/mL, the IC50 [14] was 0.336 µg/mL and the IC50 [15] was > 50 µg/mL. For the same substance, the IC50 [16] was > 50 µg/mL, the IC50 [17] was > 50 µg/mL and the IC50 [18] was 0.148 µg/mL. The IC50 [19] was > 50 µg/mL, the IC50 [20] was 0.007 µg/mL and the IC50 [21] was 0.395 µg/mL. The IC50 [22] was 0.219 µg/mL, the IC50 [23] was > 50 µg/mL and the IC50 [24] was > 50 µg/mL. For the same substance, the IC50 [25] was 0.016 µg/mL, the IC50 [26] was 17.3 µg/mL and the IC50 [27] was 14 µg/mL. For the same substance, the IC50 [28] was 0.001 µg/mL, the IC50 [29] was 0.002 µg/mL and the IC50 [30] was 1.56 µg/mL. The IC50 [31] was 25.9 µg/mL, the IC50 [32] was > 50 µg/mL and the IC50 [33] was 0.854 µg/mL. The IC50 [34] was > 50 µg/mL, the IC50 [35] was 0.236 µg/mL and the IC50 [36] was > 50 µg/mL. The IC50 [37] was 0.797 µg/mL, the IC50 [38] was 0.598 µg/mL and the IC50 [39] was > 50 µg/mL. The IC50 [40] was 0.145 µg/mL, the IC50 [41] was > 50 µg/mL and the IC50 [42] was > 50 µg/mL. For the same substance, the IC50 [43] was 1.11 µg/mL, the IC50 [44] was 0.162 µg/mL and the IC50 [45] was > 50 µg/mL.
